# Laboratory results as given in patent US20090269356.
# Biological target: complement C5 (full length) (Homo sapiens) (UniProt P01031)
# Assay: filter
# Conditions: dRmY: A,G deoxy; C,U 2'-OMe; dot blot, DPBS
# Chain of complement C5 (full length) (Homo sapiens) (P01031 whole entry): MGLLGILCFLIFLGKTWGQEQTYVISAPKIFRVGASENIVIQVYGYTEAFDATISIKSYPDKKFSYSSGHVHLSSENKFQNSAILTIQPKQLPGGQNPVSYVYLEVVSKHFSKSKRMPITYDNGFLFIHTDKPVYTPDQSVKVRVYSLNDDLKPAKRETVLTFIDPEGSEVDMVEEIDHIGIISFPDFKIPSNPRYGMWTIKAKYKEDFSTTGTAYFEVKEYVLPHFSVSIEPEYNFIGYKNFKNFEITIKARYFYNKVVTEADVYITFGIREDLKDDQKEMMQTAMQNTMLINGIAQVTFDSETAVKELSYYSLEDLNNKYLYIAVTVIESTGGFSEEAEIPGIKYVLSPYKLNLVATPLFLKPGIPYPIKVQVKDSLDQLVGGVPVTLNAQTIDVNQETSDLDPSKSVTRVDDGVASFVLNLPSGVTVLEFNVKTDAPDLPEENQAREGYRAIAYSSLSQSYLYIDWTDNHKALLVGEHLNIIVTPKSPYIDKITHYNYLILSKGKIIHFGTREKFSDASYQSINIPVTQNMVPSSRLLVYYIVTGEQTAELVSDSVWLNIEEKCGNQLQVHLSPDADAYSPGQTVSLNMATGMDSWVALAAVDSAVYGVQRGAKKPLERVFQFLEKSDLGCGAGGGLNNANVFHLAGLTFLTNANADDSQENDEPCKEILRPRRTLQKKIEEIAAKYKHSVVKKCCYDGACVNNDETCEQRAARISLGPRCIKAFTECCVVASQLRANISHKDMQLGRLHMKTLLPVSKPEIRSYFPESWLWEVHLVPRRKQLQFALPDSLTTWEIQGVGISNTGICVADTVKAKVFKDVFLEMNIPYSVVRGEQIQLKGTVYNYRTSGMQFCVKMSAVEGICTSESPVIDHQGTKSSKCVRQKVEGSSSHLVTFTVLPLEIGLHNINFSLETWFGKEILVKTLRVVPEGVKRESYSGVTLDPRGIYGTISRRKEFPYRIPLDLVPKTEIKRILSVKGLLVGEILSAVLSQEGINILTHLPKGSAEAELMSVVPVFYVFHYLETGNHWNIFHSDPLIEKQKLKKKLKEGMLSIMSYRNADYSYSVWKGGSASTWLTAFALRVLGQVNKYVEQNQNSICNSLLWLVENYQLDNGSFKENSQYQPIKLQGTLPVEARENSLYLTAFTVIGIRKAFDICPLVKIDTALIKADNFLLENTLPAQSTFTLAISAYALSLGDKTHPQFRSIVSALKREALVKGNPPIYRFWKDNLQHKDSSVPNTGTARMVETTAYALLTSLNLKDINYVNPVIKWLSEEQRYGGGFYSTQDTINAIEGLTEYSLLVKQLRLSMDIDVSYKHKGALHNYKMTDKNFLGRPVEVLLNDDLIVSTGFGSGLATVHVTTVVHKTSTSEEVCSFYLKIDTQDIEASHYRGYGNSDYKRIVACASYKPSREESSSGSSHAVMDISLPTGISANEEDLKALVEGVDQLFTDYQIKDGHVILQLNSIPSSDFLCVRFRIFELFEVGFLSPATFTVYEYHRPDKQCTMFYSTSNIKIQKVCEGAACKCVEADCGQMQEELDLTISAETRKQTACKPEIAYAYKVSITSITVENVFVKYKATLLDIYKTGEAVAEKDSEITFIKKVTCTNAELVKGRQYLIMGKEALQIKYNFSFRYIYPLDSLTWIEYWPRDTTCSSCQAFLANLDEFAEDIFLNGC
sequence,measurement,value
GGGAGAGGAGAGAACGUUCUACCUUGGUUUGGCNCAGGCAUANAUACGCACGGGUCGAUCGGUUACGACUAGCAU [doped clone SEQ 96],Kd,84 nM
